Test [1] has as its target T1, human CD47 (human, UniProt Q08722 19-323).
T1 construct: whole, on cells; also called CD47 on human RBCs; CD47 on OV10 cells
Nature of the test: flow cytometry on RBCs, CHO supernatant 10 ng/ml. In short, it runs like this: (§1)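 RBCs incubated 60 min on ice with antibody supernatants at 10 ng/ml in PBS pH 7.2, 2.5 mM EDTA. Binding detected with FITC anti-human secondary (1 h, ice) by flow cytometry; fluorescence expressed relative to chimeric VxP037-01 reference.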
In general terms: A flow cytometer gives signals particle by particle.

Test [2] has as its target T2, mouse CD47 (mouse, UniProt Q61735 19-303).
T2 construct: whole, on cells; also called CD47 on mouse RBCs; CD47 on 4T1 cells
T2 sequence (looked up): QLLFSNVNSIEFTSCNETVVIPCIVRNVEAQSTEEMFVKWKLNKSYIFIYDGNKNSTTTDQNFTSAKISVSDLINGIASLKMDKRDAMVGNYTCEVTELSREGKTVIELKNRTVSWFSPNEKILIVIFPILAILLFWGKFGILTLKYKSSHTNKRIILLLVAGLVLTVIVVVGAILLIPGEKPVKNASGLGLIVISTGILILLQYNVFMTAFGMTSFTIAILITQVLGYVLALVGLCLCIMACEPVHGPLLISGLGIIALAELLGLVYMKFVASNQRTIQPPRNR
Nature of the test: flow cytometry on RBCs, CHO supernatant 10 ng/ml. In short, it runs like this:
as §1

Another test deals with T3, rat CD47 (rat, UniProt P97829 19-303).
T3 construct: whole, on cells; also called CD47 on rat RBCs
T3 sequence (looked up): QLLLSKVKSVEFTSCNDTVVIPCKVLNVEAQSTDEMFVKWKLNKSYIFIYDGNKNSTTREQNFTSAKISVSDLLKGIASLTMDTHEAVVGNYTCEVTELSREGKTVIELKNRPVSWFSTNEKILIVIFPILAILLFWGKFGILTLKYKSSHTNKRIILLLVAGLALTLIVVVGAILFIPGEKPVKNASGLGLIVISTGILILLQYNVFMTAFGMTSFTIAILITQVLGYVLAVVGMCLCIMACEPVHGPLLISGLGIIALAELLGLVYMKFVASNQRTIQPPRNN
As to the kind of experiment: flow cytometry on RBCs, CHO supernatant 10 ng/ml. An outline of the steps: as §1

The target of another test is T4, pig CD47 (pig, UniProt Q9GKE8 19-303).
T4 construct: whole, on cells; also called CD47 on porcine RBCs
T4 sequence (looked up): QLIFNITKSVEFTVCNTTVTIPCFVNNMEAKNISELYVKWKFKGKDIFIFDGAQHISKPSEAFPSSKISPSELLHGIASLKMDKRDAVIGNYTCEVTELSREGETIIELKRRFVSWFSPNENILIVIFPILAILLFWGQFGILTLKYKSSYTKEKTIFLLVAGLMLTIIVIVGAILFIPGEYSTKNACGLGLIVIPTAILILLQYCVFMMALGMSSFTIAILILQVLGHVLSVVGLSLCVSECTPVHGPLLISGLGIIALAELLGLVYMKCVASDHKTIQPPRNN
Nature of the test: flow cytometry on RBCs, CHO supernatant 10 ng/ml. An outline of the steps: as §1

In another test the target is T5, dog CD47 (dog, UniProt A0A8I3PM61 19-310).
T5 construct: also called CD47 on dog RBCs
T5 sequence: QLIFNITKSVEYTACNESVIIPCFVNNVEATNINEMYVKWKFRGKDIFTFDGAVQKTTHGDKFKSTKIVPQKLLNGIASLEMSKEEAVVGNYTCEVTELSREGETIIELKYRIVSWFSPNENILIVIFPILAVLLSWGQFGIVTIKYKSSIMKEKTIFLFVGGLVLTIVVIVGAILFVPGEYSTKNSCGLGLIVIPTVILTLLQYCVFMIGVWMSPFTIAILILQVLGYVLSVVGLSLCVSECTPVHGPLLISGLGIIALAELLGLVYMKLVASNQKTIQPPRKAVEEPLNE
As to the kind of experiment: flow cytometry on RBCs, CHO supernatant 10 ng/ml. An outline of the steps:
as §1

Test [3] deals with T1, human CD47. As to the kind of experiment: flow cytometry on human RBCs, apparent Kd, non-linear fit. The procedure: (§2) RBCs are incubated for 60 minutes on ice with tissue culture supernatants containing the secreted humanized antibodies at a concentration of 10 ng/ml in a solution of phosphate buffered saline, pH 7.2, 2.5 mM EDTA (PBS+E), or with various concentrations of purified antibodies. Cells are then washed with cold PBS+E, and incubated for an additional hour on ice with FITC labeled donkey anti-human antibody (Jackson Immuno Research Labs, West Grove, Pa.; Catalogue #709-096-149) in PBS+E. Cells are then washed with PBS+E, and antibody binding is analyzed using a BD FACSAria Cell Sorter (Becton Dickinson) or a C6 Accuri Flow Cytometer (Becton Dickinson). Antibody binding is quantitated by comparison of mean fluorescence values relative to that of chimeric antibody >VxP037-01LC (SEQ ID NO:7))/>VxPO37-01HC (SEQ ID NO:57). The mean fluorescence value for each antibody is divided by the mean fluorescence value for the chimeric antibody.

Test [4] concerns the target T1, human CD47. As to the kind of experiment: flow cytometry on human RBCs, non-linear fit of median fluorescence. The procedure:
as §2

Test [5] concerns the target T2, mouse CD47. Nature of the test: cell-based ELISA on mouse 4T1 cells, apparent Kd. The procedure: (§3) OV10 cells are grown in IMDM medium containing 10% heat inactivated fetal bovine serum (BioWest; S01520) and 4T1 cells are grown in RMPI medium containing 10% heat inactivated fetal bovine serum (BioWest; S01520). One day before assay, 3×10⁴ cells are plated in 96 well cell bind plates (Corning #3300, VWR #66025-626) so that they are 95-100% confluent at the time of assay. Cells are washed and various concentrations of purified antibodies added in either IMDM or RPMI at 37° C. for 1 hour in […]. Cells are then washed with media and incubated for an additional hour at 37° C. with HRP labeled secondary anti-human antibody (Promega) diluted 1/2500 in media. Cells are washed three times with PBS, and the peroxidase substrate 3,3′,5,5′-tetramethylbenzidine is added (Sigma; Catalog #T4444). Reactions are terminated by the addition of HCl to 0.7N, and absorbance at 450 nm is determined using a Tecan model Infinite M200 plate reader. The apparent binding affinities of these clones to human and mouse cells is determined by non-linear fits (Prism GraphPad software). […] Agglutination of human RBCs is assessed following incubation of human RBCs with various concentrations of humanized blocking only clones. Blood is diluted (1:50) and washed 3 times with PBS/EDTA/BSA. RBCs are added to U-bottomed 96 well plates with equal volumes of the antibodies (75 μl) and incubated for 3 hrs at 37° C. and overnight at 4° C.
(ELISA stands for enzyme-linked immunosorbent assay.)

Test [6] has as its target T1, human CD47. Nature of the test: cell-based ELISA on human OV10 cells, apparent Kd. Here is the method: as §3

T1 sequence (Q08722 19-323): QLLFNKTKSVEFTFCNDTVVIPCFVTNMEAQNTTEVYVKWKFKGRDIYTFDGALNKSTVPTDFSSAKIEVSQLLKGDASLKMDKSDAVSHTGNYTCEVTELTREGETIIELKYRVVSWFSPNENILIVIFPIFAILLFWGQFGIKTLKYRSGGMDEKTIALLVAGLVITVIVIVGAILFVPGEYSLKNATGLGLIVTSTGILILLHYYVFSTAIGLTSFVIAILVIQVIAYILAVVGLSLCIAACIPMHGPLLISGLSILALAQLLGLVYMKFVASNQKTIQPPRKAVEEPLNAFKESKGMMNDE

B1: Clone 1 (pVxK7b-037-hum01-LC / pVxK7b-037-hum01-HC) (antibody, human IgG1, kappa)
heavy: not shown
light: DIVMTQTPLSLPVTPGEPASISCRSSQSLVHSNGNTYLHWYQQKPGKAPKLLIYKVSYRFSGVPDRFSGSGSGTDFTLKISRVEAEDVGVYYCSQNTHVPRTFGQGTKVEIKRTVAAPSVFIFPPSDEQLKSGTASVVCLLNNFYPREAKVQWKVDNALQSGNSQESVTEQDSKDSTYSLSSTLTLSKADYEKHKVYACEVTHQGLSSPVTKSFNRGEC
notes: also called Cl 1
Turning to B1, the “mean fluorescence relative to chimeric antibody” value with human CD47 [1] amounted to 1.1 ratio; in the test with mouse CD47 [2], 1.7 ratio; with rat CD47, 2.7 ratio; in the test with pig CD47, 1.3 ratio; with dog CD47, 1 ratio. Moreover, the Kd came out at 1.51 nM in the test with human CD47 [3] and 0.226 µg/mL with human CD47 [4].

B2: Clone 13.1 (hum13 IgG1 N297Q) (antibody)
heavy: EVQLVQSGAEVKKPGESLRISCKGSGYTFTNYYVFWIRQSPSRGLEWLGDINPVNGDTNFNEKFKNRVTITADKSTSTAYMELSSLRSEDTAVYYCARGGYTMDYWGQGTLVTVSSASTKGPSVFPLAPSSKSTSGGTAALGCLVKDYFPEPVTVSWNSGALTSGVHTFPAVLQSSGLYSLSSVVTVPSSSLGTQTYICNVNHKPSNTKVDKKVEPKSCDKTHTCPPCPAPELLGGPSVFLFPPKPKDTLMISRTPEVTCVVVDVSHEDPEVKFNWYVDGVEVHNAKTKPREEQYQSTYRVVSVLTVLHQDWLNGKEYKCKVSNKALPAPIEKTISKAKGQPREPQVYTLPPSR
light: B1 light
notes: Fc mutant of Clone 13, IgG1 N297Q
Consider B2, for which the Kd in the test with mouse CD47 [5] came to 0.0867 nM; with human CD47 [6] it was 0.0886 nM; with human CD47 [3], 1.21 nM; with human CD47 [4], 0.183 µg/mL.

B3: Clone 1.1 (hum01 IgG1 N297Q) (antibody)
heavy: QVQLQESGPGLVKPSQTLSLTCTVSGYTFTNYYVFWVRQARGQRLEWIGDINPVNGDTNFNEKFKNRVTISADKSISTAYLQWSSLKASDTAMYYCARGGYTMDYWGQGTLVTVSSASTKGPSVFPLAPSSKSTSGGTAALGCLVKDYFPEPVTVSWNSGALTSGVHTFPAVLQSSGLYSLSSVVTVPSSSLGTQTYICNVNHKPSNTKVDKKVEPKSCDKTHTCPPCPAPELLGGPSVFLFPPKPKDTLMISRTPEVTCVVVDVSHEDPEVKFNWYVDGVEVHNAKTKPREEQYQSTYRVVSVLTVLHQDWLNGKEYKCKVSNKALPAPIEKTISKAKGQPREPQVYTLPPSR
light: B1 light
notes: Fc mutant of Clone 1, IgG1 N297Q; also called Cl 1.1
Turning to B3, the Kd was 0.132 nM with mouse CD47 [5], 0.148 nM with human CD47 [6], 2.04 nM in the test with human CD47 [3] and 0.307 µg/mL with human CD47 [4].

B4: Clone 13 (pVxK7b-037-hum13-LC / pVxK7b-037-hum13-HC) (antibody, human IgG1, kappa)
heavy: not shown
light: B1 light
notes: also called Cl 13
For the molecule B4, the “mean fluorescence relative to chimeric antibody” value with human CD47 [1] was determined as 1.2 ratio; with mouse CD47 [2] it was 1.3 ratio; with rat CD47, 3.1 ratio; with pig CD47, 1.4 ratio; in the test with dog CD47 it was 1 ratio. Also, the figures for the Kd in the test with human CD47 [3] and with human CD47 [4] were 0.58 nM and 0.0864 µg/mL, respectively.

The record behind these values is patent publication US20150274826A1 (ARCH ONCOLOGY, published 2015).
